Source: patent US20220315908A1, “NOVEL GARDNERELLA ENDOLYSINS AND USES THEREOF” (priority 2019, published 2022)

Tests used:
[1] = system: G. vaginalis sensu stricto strain Gv_9; experiment: Quantitative reduction in viable CFU assay in bacterial suspension; type: cell-based, Gardnerella vaginalis sensu stricto; details: Gv_9; 5 hours, pH 5.0, anaerobic; 10 ul endolysin (0.2 mg/ml where possible) + 90 ul 5e7 CFU/ml; average of triplicate
Method: The lysis activity on the four main species of Gardnerella of 91 constructs (natural and domain-swapped endolysins) was quantitatively assessed using the method described in Reference Example 2. […]
(§1) The results are shown in FIGS. 8A to 8D together with Tables 5A to 5C. In FIGS. 8A to 8D, the logarithmic Y axis depicts the count of surviving cells. The dotted line indicates the limit of detection (LOD) given by plating of 2 ul of the reaction mix (500 CFU/ml). Each combination of the natural 10 H-domains and the natural 9 B-regions was assessed, including the natural endolysins (H1B1, H2B2, H3B3, etc.), plus H6B6. […] The activity of each construct was measured on each of the 4 main Gardnerella species G. vaginalis sensu stricto, G. leopoldii, G. piotii, and G. swidsinkii. All conditions have been measured in triplicate. The survival after 5 hours incubation at pH 5.0 under anaerobic conditions with endolysins vs. buffer was measured by quantitative plating. The values indicate the log 10 of the ratio of surviving CFU for treated vs. untreated cells. The average of the triplicate measurements is used. In tables 5A and 5B, high negative log 10 values, e.g. −6.7, −5.5, −4.8 etc. are associated with high enzymatic activity, while log 10 values closer to zero or even positive log 10 values are associated with low or no enzymatic activity. […] Inversely, a reduction value of −3.7 means a 10^3.7-fold (=5012-fold) reduction of viable CFU in treated sample vs. untreated control.
(§2) Gardnerella cells were recovered from cryo stock by plating on Chocolate Agar plates (Beckton Dickinson) and incubating for 48 h at 37° C. under anaerobic conditions. For Lactobacilli, BD Schaedler/5% sheep blood agar plates were used instead. Colonies were scraped from the plate, resuspended in Hardy Broth or NYC-III-HS-5.0 at the pH as indicated, and the suspension adjusted to OD (610 or 620 nm as indicated) 0.1. It has to be noted that two Tecan Microplate readers, having respectively a 610 nm or 620 nm filter, have been used interchangeably in the experiments. Although it doesn't make any difference for the experiments, the exact wavelength used is specified in each example. If not stated otherwise, 90 μl cell suspension was mixed with 10 μl endolysin solution, for the different species/endolysin combinations, in 384-well plates. OD(610-620 nm as indicated) was measured at the beginning of the reaction and at the end, either as two measurement points or as a continuous kinetic in a Tecan F200 Microplate reader. The reactions were incubated for 5 hours (or otherwise the time indicated) at 37° C. under anaerobic, micro-aerophilic or aerobic conditions as indicated. Anaerobic conditions intend that oxygen was fully depleted from the container in which the bacteria are incubated (Sigma-Aldrich anaerobic jar or sealable lunch box) with an anaerobic sachet, and the lack of oxygen was confirmed with an anaerobic indicator inside the container. Where micro-aerophilic conditions are indicated, the candle-in-a-jar method was used (tea candle lit in an appropriate sealable container, which reduces oxygen levels until the flame dies out). Then each well was diluted in 5 steps (10^−1 to 10^−5) using 96-U-well bottom plates, and 2 μl of each dilution of each reaction mix are plated on BD Chocolate agar plates or BD Schaedler/5% sheep blood agar plates for Gardnerella and Lactobacilli, respectively, for detecting and quantifying surviving CFU. Detection plates were incubated at 37° C. for 48 hours under anaerobic conditions.

[2] = system: G. leopoldii strain Gv_11; experiment: as above; type: cell-based, Gardnerella leopoldii; details: 5 hours, pH 5.0, anaerobic, 10 ul endolysin (0.2 mg/ml where possible) + 90 ul 5e7 CFU/ml, average of triplicate
Method: (§3) The lysis activity on the four main species of Gardnerella of 91 constructs (natural and domain-swapped endolysins) was quantitatively assessed using the method described in Reference Example 2. Briefly, 90 ul 5e7 CFU/ml of the indicated strain were incubated for 5 hours at pH 5.0 under anaerobic conditions with 10 ul endolysin (concentration adjusted to 0.2 mg/ml where possible, see Table 4).
as §1, §2

[3] = system: four Gardnerella strains (Gv_9, Gv_11, Gv_17, Gv_23); experiment: CFU reduction averaged across the four Gardnerella strains, with activity ranks; type: cell-based; details: for average of the log 10 activities of each construct across the four Gardnerella strains: pH 5.0, 5 hours, anaerobic; for activity rank of all endolysins: rank 1-91, based on the data of Table 5B
Method: as §3, §1
as §2, with “out).” for “out). Then each well was diluted in 5 steps (10^−1 to 10^−5) using 96-U-well bottom plates, and 2 μl of each dilution of each reaction mix are plated on BD Chocolate agar plates or BD Schaedler/5% sheep blood agar plates for Gardnerella and Lactobacilli, respectively, for detecting and quantifying surviving CFU. Detection plates were incubated at 37° C. for 48 hours under anaerobic conditions.”

G. piotii strain Gv_17 = experiment: Quantitative reduction in viable CFU assay in bacterial suspension; type: cell-based, Gardnerella piotii; details: 5 hours, pH 5.0, anaerobic, 10 ul endolysin (0.2 mg/ml where possible) + 90 ul 5e7 CFU/ml, average of triplicate
Method: as §3, §1, §2

B1: H2B2: natural Gardnerella prophage endolysin from strain Gv18-4 (protein)
chain: MSKRGIDVSEWQGDIDFNAVKASGVEFVIIRAGYGIGCKDKWFEQNYRKAKTCGLDVGAYWYSYANSGFEAAEEAQSCVNMLSGKSFEYPVYFDLEEKSQLNRGRAFCDSLITGFCNKLESCGYYAGFYTSLSTANNLVSAHVRNRYALWIAQWNTHCSYQGSYGLWQYSSSGSVPGVAGRVDMDYAYVDYPSIIKNVGLNGCKNGGSDQAARTSSIDEVAREVINGAWGNGNERKQRLTSAGYDYASVQNKVNELLGVKACRKSVDEIAREVIRGTWGNGSTRKQRLTQAGYDYDTVQKRVNELL
modifications: EL2_strain_Gv18-4
log 10 of the ratio of surviving CFU for treated vs. untreated cells [1]: −1.2 log 10
log 10 of the ratio of surviving CFU for treated vs. untreated cells [2]: −1.1 log 10
average of the log 10 activities of each construct across the four Gardnerella strains [3]: −2.6 log 10
activity rank of all endolysins [3]: 25
log 10 of the ratio of surviving CFU for treated vs. untreated cells (G. piotii strain Gv_17): −2.5 log 10

B2: H4B4: natural Gardnerella prophage endolysin from strain Gv5-1 (protein)
chain: MSKKGIDVSEWQGDIDFNAVKASGVEFVIIRAGYGIGCKDKWFEQNYRKAKTCGLDVGAYWYSYANSGFEAAEEAQSCVNMLSGKSFEYPVYFDLEEKSQLNRGRAFCDSLITSFCSKLETYGYYAGFYTSLSVVNNLVSAHVRDRYALWIAQWNTHCSYQGSYGLWQYSSSGSVPGVAGRVDMDYAYVDYPSIIKNVGLNGCKNGGSDQATRTSSIDEVAREVINGAWGNGNERKQRLTSAGYDYASVQNKVNKLLGVKAYRKSVDELAREVIRGTWGNGNERKQRLAQAGYDYDTVQKRVNELL
modifications: EL4_strain_Gv5-1
log 10 of the ratio of surviving CFU for treated vs. untreated cells [1]: −0.4 log 10
log 10 of the ratio of surviving CFU for treated vs. untreated cells [2]: −0.5 log 10
average of the log 10 activities of each construct across the four Gardnerella strains [3]: −0.8 log 10
activity rank of all endolysins [3]: 76
log 10 of the ratio of surviving CFU for treated vs. untreated cells (G. piotii strain Gv_17): −0.4 log 10

B3: H3B3: natural Gardnerella prophage endolysin from strain Gv18-4 (protein)
chain: MSKKGIDVSVWQGDIDFNSVKASGVEFVIIRAGYGIGHKDKWFEENYRKAKTAGLDVGSYWYSYASSAGEASEEAQSCVNILSGKSFEYPIYFDLEEKSQLNRGRDFCDSLITSFCNKLEACGYYAGFYTSLSVANNLVSSHVRDRYALWIAQWNTHCSYQGSYGLWQYSSSGSVNGIAGRVDMDYAYVDYPSVIKNAGLNGYQNGGSYTAPQTSSIDEVAREVINGDWGNGNDRKNRLISAGYDYASVQNKVNELLGVKAYRKSVDELAREVIRGTWGNGSMRKHRLTQAGYDYDAVQKRVNELL
modifications: EL3_strain_Gv18-4
log 10 of the ratio of surviving CFU for treated vs. untreated cells [1]: −3.0 log 10
log 10 of the ratio of surviving CFU for treated vs. untreated cells [2]: −2.0 log 10
average of the log 10 activities of each construct across the four Gardnerella strains [3]: −3.0 log 10
activity rank of all endolysins [3]: 13
log 10 of the ratio of surviving CFU for treated vs. untreated cells (G. piotii strain Gv_17): −1.5 log 10

B4: H1B1: natural Gardnerella prophage endolysin from strain HMP9231 (protein)
chain: MSKKGIDVSEWQGDIDFNAVKASGVEFVIIRAGYGIGCKDKWFEQNYRKAKTAGLDVGAYWYSYANSGFEAAEEAQSLMNMLSGKSFEYPVYFDLEEKSQLNRGRAFCDSLITSFCNKLEACGYYAGFYTSLSTANNLVSAHVRNRYALWIAQWNTHCNYQGSYGLWQYSSNGSVPGVAGRVDMDYAYVDYPSIIKNAGLNGCKNGGSDQAARTSSIDEVAREVINGAWGNGSTRKQRLTSAGYDYASVQNKVNELLGVKACRKSVDELAREVIRGAWGNGSTRKQRLAQAGYDYDTVQKRVNELL
modifications: EL1_strain_HMP9231
notes: natural Gardnerella prophage endolysin from strain HMP9231
log 10 of the ratio of surviving CFU for treated vs. untreated cells [1]: −1.9 log 10
log 10 of the ratio of surviving CFU for treated vs. untreated cells [2]: −1.3 log 10
average of the log 10 activities of each construct across the four Gardnerella strains [3]: −1.9 log 10
activity rank of all endolysins [3]: 44
log 10 of the ratio of surviving CFU for treated vs. untreated cells (G. piotii strain Gv_17): −0.9 log 10

B5: H5B5: natural Gardnerella prophage endolysin from strain JCP7276 (protein)
chain: MSKKGIDVSEWQGDIDFNAVKASGVEFVIIRAGYGIGCKDKWFEQNYRKAKTAGLDVGAYWYSYANSSSEAAEEAQSCANMLSGKSFEYPVYFDLEEKSQLNRGRAFCDSLITGFCSKLEACGYYAGFYTSLSTANNLVSAHVRNRYALWIAQWNTHCSYQGSYGLWQYSSNGSVPGVAGRVDMDYAYKDYPSIIKNAGLNGCKNGGSDQAARTSSIDEVAREVINGAWGNGNERKQRLTQAGYDYTSVQNKVNKLLGVKACRKSVDELAREVIRGTWGNGNERKNRLTQAGYDYDTVQKRVNELL
modifications: EL5_strain_JCP7276
notes: natural Gardnerella prophage endolysin from strain JCP7276
log 10 of the ratio of surviving CFU for treated vs. untreated cells [1]: 0.2 log 10
log 10 of the ratio of surviving CFU for treated vs. untreated cells [2]: 0.3 log 10
average of the log 10 activities of each construct across the four Gardnerella strains [3]: 0.1 log 10
activity rank of all endolysins [3]: 87
log 10 of the ratio of surviving CFU for treated vs. untreated cells (G. piotii strain Gv_17): −0.1 log 10

B6: H7B7: natural Gardnerella prophage endolysin from strain AMD (protein)
chain: MSKKGIDVSEWQGDIDFNAVKASGVEFVIIRAGYGIGCKDKWFEQNYRKAKTAGLDVGAYWYSYANSASEAAEEAQSCANMLSGKSFEYPVYFDLEEKSQLNRGRAFCDSLITSFCSKLETYGYYAGFYTSLSTANNLVSSHVRNRYALWIAQWNTHCSYQGSYGLWQYSSSGSVPGVAGRVDMDYAYKDYPSIIKNAGLNGCKNGGSDQAARTSSIDEVAREVINGAWGNGNERKQRLTQAGYDYTSVQNKVNKLLGVKACRKSVDELAREVIRGTWGNGNERKNRLTQAGYDYDTVQKRVNELL
modifications: EL7_strain_AMD
notes: natural Gardnerella prophage endolysin from strain AMD
log 10 of the ratio of surviving CFU for treated vs. untreated cells [1]: −1.6 log 10
log 10 of the ratio of surviving CFU for treated vs. untreated cells [2]: −2.1 log 10
average of the log 10 activities of each construct across the four Gardnerella strains [3]: −2.0 log 10
activity rank of all endolysins [3]: 40
log 10 of the ratio of surviving CFU for treated vs. untreated cells (G. piotii strain Gv_17): −1.2 log 10
